Test results: patent US20240336672A1
Changes are numbered by the printed parent chain.

B1: Cv2.1353 (recombinant human IgG1) (antibody)
heavy: EVQLVESGGGLVQPGGSLRLSCAASGVTVSSNYMNWVRQAPGKGLEWVSVIYSGGSTFYADSVKGRFIISRDNSKNTLYLQMNSLKTEDTAVYYCARDLGPMGFDIWGQGTMVTVSSASTKGPSVFPLAPSSKSTSGGTAALGCLVKDYFPEPVTVSWNSGALTSGVHTFPAVLQSSGLYSLSSVVTVPSSSLGTQTYICNVNHKPSNTKVDKKVEPKSCDKTHTCPPCPAPELLGGPSVFLFPPKPKDTLMISRTPEVTCVVVDVSHEDPEVKFNWYVDGVEVHNAKTKPREEQYNSTYRVVSVLTVLHQDWLNGKEYKCKVSNKALPAPIEKTISKAKQPREPQVYTLPPSRDELTKNQVSLTCLVKGFYPSDIAVEWESNGQPENNYKTTPPVLDSDGSFFLYSKLTVDKSRWQQGNVFSCSVMHEALHNHYTQKSLSLSPGK
light: DIQMTQSPSFLSASVGDRVTITCRASQGISSYLAWYQQKPGKAPKLLIYAASTLQSGVPSRFSGSGSGTEFTLTISSLQPEDFATYYCQQLNSDPPVTFGPGTKVDIKRTVAAPSVFIFPPSDEQLKSGTASVVCLLNNFYPREAKVQWKVDNALQSGNSQESVTEQDSKDSTYSLSSTLTLSKADYEKHKVYACEVTHQGLSSPVTKSFNRGEC
B2: ADG-2 (antibody, V domains shown)
VH: EVQLVESGGGLVKPGGSLRLSCAASGFTFSSYYMNWVRQAPGKGLEWVSSISEDGYSTYYPDSLKGRFTISRDSAKNSLYLQMNSLRADDTAVYYCARDFSGHTAWAGTGFEYWGQGTLVTVSS
VL: QSVLTQPPSVSGAPGQRITISCTGSSSNIGAGYDVHWYQQLPGTAPKLLIYGSSSRNSGVPDRFSGSKSGTSASLAITGLQAEDEADYYCQSYDSSLSVLYTFGTGTKVTVL
B3: COV2-2130 (antibody, V domains shown)
VH: EVQLVESGGGLVKPGGSLRLSCAASGFTFRDVWMSWVRQAPGKGLEWVGRIKSKIDGGTTDYAAPVKGRFTISRDDSKNTLYLQMNSLKTEDTAVYYCTTAGSYYYDTVGPGLPEGKFDYWGQGTLVTVSS
VL: not shown
B4: Cv2.5213 (recombinant human IgG1) (antibody)
heavy: EVQLVESGGGLIQPGGSLRLSCAASGFTVSSNYMSWVRQAPGKGLEWVSLIYSGGSTYYADSVKGRFTISRDNSKNTLYLQMNSLRAEDTAVYYCARDLNYYGMDVWGQGATVTVSSASTKGPSVFPLAPSSKSTSGGTAALGCLVKDYFPEPVTVSWNSGALTSGVHTFPAVLQSSGLYSLSSVVTVPSSSLGTQTYICNVNHKPSNTKVDKKVEPKSCDKTHTCPPCPAPELLGGPSVFLFPPKPKDTLMISRTPEVTCVVVDVSHEDPEVKFNWYVDGVEVHNAKTKPREEQYNSTYRVVSVLTVLHQDWLNGKEYKCKVSNKALPAPIEKTISKAKQPREPQVYTLPPSRDELTKNQVSLTCLVKGFYPSDIAVEWESNGQPENNYKTTPPVLDSDGSFFLYSKLTVDKSRWQQGNVFSCSVMHEALHNHYTQKSLSLSPGK
light: not shown
B5: Cv2.3235 (recombinant human IgG1) (antibody)
heavy: B4 heavy with S31R, L50V, Y58F, L99G, N100D, A111T
light: DIQMTQSPSFLSASVGDRVTITCRASQGISSFLAWYQQKPGKAPKLLIYGASTLQSGVTSRFSGSGSGTEFTLTISSLQPEDFATYYCQRLDSYPPITFGQGTRLEIKRTVAAPSVFIFPPSDEQLKSGTASVVCLLNNFYPREAKVQWKVDNALQSGNSQESVTEQDSKDSTYSLSSTLTLSKADYEKHKVYACEVTHQGLSSPVTKSFNRGEC

Legend:
Conditions in all cases: remark: other sources report otherwise
[1] = target: T1, SARS-CoV-2 Spike ectodomain (tri-S), Wuhan (SARS-CoV-2), P0DTC2; assay: competition ELISA, spike protein binding to ACE2 ectodomain
[2] = target: T1, SARS-CoV-2 Spike ectodomain (tri-S), …; assay: ELISA, coated antigen
[3] = target: T1, SARS-CoV-2 Spike ectodomain (tri-S), …; assay: competition ELISA vs bio-Cv2.1353
[4] = target: T1, SARS-CoV-2 Spike ectodomain (tri-S), …; assay: SPR (Biacore), antibody immobilised
[5] = target: SARS-CoV-2 RBD (P.1) domain (SARS-CoV-2); assay: RBD-ACE2 competition ELISA; design: unit not given beside the values
[6] = target: SARS-CoV-2 RBD (B.1.1.7) domain (SARS-CoV-2); assay: RBD-ACE2 competition ELISA; design: unit not given beside the values
[7] = target: SARS-CoV-2 RBD (B.1.351) domain (SARS-CoV-2); assay: RBD-ACE2 competition ELISA; design: unit not given beside the values
[8] = target: T1, SARS-CoV-2 Spike ectodomain (tri-S), …; assay: competition ELISA vs bio-Cv2.3235
[9] = target: T1, SARS-CoV-2 Spike ectodomain (tri-S), …; assay: competition ELISA vs bio-Cv2.5213
[10] = target: T1, SARS-CoV-2 Spike ectodomain (tri-S), …; assay: competition ELISA vs bio-Cv2.3194
[11] = target: T1, SARS-CoV-2 Spike ectodomain (tri-S), …; assay: tri-S/ACE2 blocking ELISA [B]
[12] = target: T1, SARS-CoV-2 Spike ectodomain (tri-S), …; assay: competition ELISA vs bio-Cv2.1169
[13] = target: SARS-CoV-2 RBD (P.1) domain (SARS-CoV-2); assay: ELISA; design: unit not given beside the values
[14] = target: SARS-CoV-2 RBD (B.1.1.7) domain (SARS-CoV-2); assay: ELISA; design: unit not given beside the values
[15] = target: SARS-CoV-2 RBD (B.1.351) domain (SARS-CoV-2); assay: ELISA; design: unit not given beside the values
[16] = target: SARS-CoV-2 RBD (P.1) domain (SARS-CoV-2); assay: RBD-ACE2 competition ELISA; design: unit not given beside the values; remark: listed apart in the source
[17] = target: SARS-CoV-2 RBD (B.1.1.7) domain (SARS-CoV-2); assay: RBD-ACE2 competition ELISA; design: unit not given beside the values; remark: listed apart in the source
[18] = target: SARS-CoV-2 RBD (B.1.351) domain (SARS-CoV-2); assay: RBD-ACE2 competition ELISA; design: unit not given beside the values; remark: listed apart in the source
[19] = target: T1, SARS-CoV-2 Spike ectodomain (tri-S), …; assay: tri-S capture ELISA
[20] = target: T1, SARS-CoV-2 Spike ectodomain (tri-S), …; assay: biotinylated tri-S on immobilised ACE2, competition ELISA
[21] = target: SARS-CoV-2 RBD (P.1) domain (SARS-CoV-2); assay: RBD/ACE2 blocking ELISA
[22] = target: SARS-CoV-2 RBD (B.1.1.7) domain (SARS-CoV-2); assay: RBD/ACE2 blocking ELISA
[23] = target: SARS-CoV-2 RBD (B.1.351) domain (SARS-CoV-2); assay: RBD/ACE2 blocking ELISA
[24] = target: T1, SARS-CoV-2 Spike ectodomain (tri-S), …; assay: tri-S/ACE2 blocking ELISA
[25] = target: SARS-CoV-2 RBD (P.1) domain (SARS-CoV-2); assay: ELISA; design: unit not given beside the values; remark: listed apart in the source
[26] = target: SARS-CoV-2 RBD (B.1.1.7) domain (SARS-CoV-2); assay: ELISA; design: unit not given beside the values; remark: listed apart in the source
[27] = target: SARS-CoV-2 RBD (B.1.351) domain (SARS-CoV-2); assay: ELISA; design: unit not given beside the values; remark: listed apart in the source
[28] = target: T1, SARS-CoV-2 Spike ectodomain (tri-S), …; assay: ELISA; design: unit not given beside the values
[29] = target: SARS-CoV-2 RBD (P.1) domain (SARS-CoV-2); assay: ELISA

Binder | ACE2 Block (%) [1] [%] | ELISA OD [2] [OD] | triS ELISA (AUC) [2] [AUC] | % inhibition (competition) [3] | Kd [4] [nM] | AUC (RBD block.) [5] | AUC (RBD block.) [6] | AUC (RBD block.) [7] | % inhibition (competition) [8] | % inhibition (competition) [9] | % inhibition (competition) [10] | AUC of blocking [11] | % inhibition (competition) [12] | AUC (RBD bind.) [13] | AUC (RBD bind.) [14] | AUC [15] | AUC (RBD bind.) [15] | AUC (RBD block.) [16] | AUC (RBD block.) [17] | AUC (RBD block.) [18] | also measured
B1 | 92 | 3.5 | 14 | 88 | 2.22 | 66 | 203 | 62 | 97 | 90 | 88 | 156 | 86 | 13 | 12 | 13 | 12 | 33 | 102 | 31 | triS Capt-ELISA [19]: 2.2; EC50 [20]: 0.26 µg/mL
B2 | – | – | – | – | – | – | – | – | – | – | – | – | – | – | – | – | – | – | – | – | % binding inhibition [21]: 89%; % binding inhibition [22]: 92%; % binding inhibition [23]: 95%; % binding inhibition [24]: 96%; AUC [25]: 3; AUC [26]: 3; AUC [27]: 3; AUC [28]: 3
B3 | – | – | – | – | – | – | – | – | – | – | – | – | – | – | – | – | – | – | – | – | % binding inhibition [21]: 90%; % binding inhibition [22]: 85%; % binding inhibition [23]: 96%; AUC [25]: 3; AUC [26]: 3; AUC [27]: 3
B4 | 90 | 3.8 | 14.2 | 84 | 6.54 | 9 | 45 | 18 | 98 | 90 | 81 | 181 | 81 | 9 | 13 | 1 | 2 | 4 | 22 | 9 | triS Capt-ELISA [19]: 2.1; EC50 [20]: 0.22 µg/mL; EC50 (read off the curve) [29]: 0.07 µg/mL
B5 | 78 | 3.6 | 13.2 | 56 | 5.37 | 4 | 30 | 25 | 93 | 67 | 60 | 164 | 34 | 2 | 13 | 1 | 1 | 2 | 15 | 13 | triS Capt-ELISA [19]: 1; EC50 [20]: 0.47 µg/mL
